Test results from PMC3936261.
Read-outs that look alike come from different tables or passages of the source.

How the values were obtained:
Test in all cases: other fluorescence titration
[1] = target: Prdx1 protein labeled with Alexa Fluor 546 (UniProt Q06830)
[2] = target: Prdx1 protein labeled with Alexa Fluor 546 (UniProt Q06830); remark: listed apart in the source
[3] = target: Prdx1 protein labeled with Alexa Fluor 546 (UniProt Q06830); remark: listed apart in the source

Sequence of Prdx1 protein labeled with Alexa Fluor 546 (Q06830 whole entry): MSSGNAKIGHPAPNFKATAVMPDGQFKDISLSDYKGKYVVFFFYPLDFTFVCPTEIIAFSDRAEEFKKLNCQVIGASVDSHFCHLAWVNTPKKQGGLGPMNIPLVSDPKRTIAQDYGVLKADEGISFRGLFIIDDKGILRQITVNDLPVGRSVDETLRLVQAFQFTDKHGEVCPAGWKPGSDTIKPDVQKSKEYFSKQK

Kd [1]: 0.21 µM | Kd [2]: 0.261 µM | Kd [3]: 0.215 µM
Substance: MKP-1 protein labeled with QSY 35 (from UniProt P28562 1-367) (enzyme)
